Substitutions are numbered along the chain they refer to. Names may count otherwise. Where no end group is shown, it is not given here.
T1: Peptide-43 (cysteine pairing not given here; also: biotinylated, site not given here)
T1 peptide: VDFCALYHWPICYQ

T2: Peptide-63 (cysteine pairing not given here; also: biotinylated, site not given here)
T2 peptide: IDFCLIYNWPVCDT

T3: Peptide-37 (cysteine pairing not given here; also: biotinylated, site not given here)
T3 peptide: VDFCYLYNWPVCSK

T4: Peptide-40 (cysteine pairing not given here; also: biotinylated, site not given here)
T4 peptide: VDFCYLYSWPICTK

T5: Peptide-32 (cysteine pairing not given here; also: biotinylated, site not given here)
T5 peptide: PDFCYMYGWPICDS

T6: Peptide-42 (cysteine pairing not given here; also: biotinylated, site not given here)
T6 peptide: IDFCAMYHWPICDT

T7: Peptide-8 (cysteine pairing not given here; also: biotinylated, site not given here)
T7 peptide: VDFCGLYHWPICYQ

T8: Peptide-38 (cysteine pairing not given here; also: biotinylated, site not given here)
T8 peptide: VDFCSIYHWPVCYV

T9: Peptide-36 (cysteine pairing not given here; also: biotinylated, site not given here)
T9 peptide: VDFCYQYGWPICSR

T10: Peptide-64 (cysteine pairing not given here; also: biotinylated, site not given here)
T10 peptide: PDFCAVYRWPICYQ

T11: Peptide-35 (cysteine pairing not given here; also: biotinylated, site not given here)
T11 peptide: EDFCYWYQWPICSD

T12: Peptide-25 (cysteine pairing not given here; also: biotinylated (site not given here))
T12 peptide: VDFCKIYSWPVCHQ

T13: Peptide-33 (cysteine pairing not given here; also: biotinylated, site not given here)
T13 peptide: PDFCYMYNWPVCVT

T14: Peptide-3 (cysteine pairing not given here; also: biotinylated, site not given here)
T14 peptide: IDFCMLYNWPICAG

T15: Peptide-62 (cysteine pairing not given here; also: biotinylated, site not given here)
T15 peptide: IDFCAVYKWPVCQV

T16: Peptide-39 (cysteine pairing not given here; also: biotinylated, site not given here)
T16 peptide: VDFCGLYHWPICYQVD

T17: Peptide-51 (cysteine pairing not given here; also: biotinylated, site not given here)
T17 peptide: VDFCGLYHWPICYQV

T18: Peptide-56 (cysteine pairing not given here; also: biotinylated, site not given here)
T18 peptide: VDFCYQYGWPICSRV

T19: Peptide-49 (cysteine pairing not given here; also: biotinylated, site not given here)
T19 peptide: IDFCLLYKWPVCEL

T20: Peptide-47 (cysteine pairing not given here; also: biotinylated, site not given here)
T20 peptide: VDFCYQYGWPICSRLY

T21: Peptide-55 (cysteine pairing not given here; also: biotinylated, site not given here)
T21 peptide: VDFCYKYNWPICSR

T22: Peptide-54 (cysteine pairing not given here; also: biotinylated, site not given here)
T22 peptide: VDFCYRYSWPVCWA

T23: Peptide-53 (cysteine pairing not given here; also: biotinylated, site not given here)
T23 peptide: IDFCRVYDWPVCSL

T24: Peptide-59 (cysteine pairing not given here; also: biotinylated, site not given here)
T24 peptide: VDFCALYNWPVCAI

T25: Peptide-61 (cysteine pairing not given here; also: biotinylated, site not given here)
T25 peptide: VDFCALYHWPVCGL

T26: Peptide-48 (cysteine pairing not given here; also: biotinylated, site not given here)
T26 peptide: VDFCYMYKWPVCYP

T27: Peptide-50 (cysteine pairing not given here; also: biotinylated, site not given here)
T27 peptide: VDFCAIYSWPICKI

T28: Peptide-45 (cysteine pairing not given here; also: biotinylated, site not given here)
T28 peptide: VDFCYQYGWPICSRVD

T29: Peptide-60 (cysteine pairing not given here; also: biotinylated, site not given here)
T29 peptide: VDFCNLYHWPICAI

T30: Peptide-57 (cysteine pairing not given here; also: biotinylated, site not given here)
T30 peptide: IDFCYRYGWPVCQT

B1: TBD-1 wt (Fab, V domains shown)
VH: QVQLQQSGSELKKPGASVKVSCKASGYTFTNYGMNWVKQAPGQGLKWMGWINTYTGEPTYTDDFKGRFAFSLDTSVSTAYLQISSLKADDTAVYFCARGGFGSSYWYFDVWGQGSLVTVSS
VL: DIQLTQSPSSLSASVGDRVSITCKASQDVSIAVAWYQQKPGKAPKLLIYSASYRYTGVPDRFSGSGSGTDFTLTISSLQPEDFAVYYCQQHYITPLTFGAGTKVEIKR
notes: Fab; the heavy chain entry is VH-CH1; also called wild-type anti-TROP2 Fab (hRS7); TROP2 Fab
B2: TBD-21 (HC F108A) (Fab, V domains shown)
VH: B1 VH with F108A
VL: B1 VL
notes: Fab; also called HC F108A mutant
B3: TBD-17 (HC S104A) (Fab, V domains shown)
VH: B1 VH with S104A
VL: B1 VL
notes: Fab; also called HC S104A mutant
B4: TBD-6 (LC I93A) (Fab, V domains shown)
VH: B1 VH
VL: B1 VL with I93A
notes: Fab; also called LC I93A mutant
B5: TBD-11 (HC R98A) (Fab, V domains shown)
VH: B1 VH with R98A
VL: B1 VL
notes: Fab; also called HC R98A mutant

Target: T1, Peptide-43
Assay: ELISA, Fab on captured biotin-peptide
Method: (§1) Binding was measured in a standard ELISA format. […] Bound TBDs were detected using a standard horse radish peroxidase conjugate secondary antibody. The ELISA signal was plotted versus the log-scale concentration of TBD. The concentrations of TBD required to observe half maximal binding signal (EC₅₀s) were calculated using Graphpad Prism software.

Point of comparison: B1, EC50 27.5 nM. Against it:
- B2 — 2.3-fold lower, 12 nM
- B3 — 5.6-fold lower, 4.9 nM
- B4 — 3.8-fold lower, 7.2 nM
- B5 — 2.8-fold higher, 77.5 nM

Target: T2, Peptide-63
Assay: ELISA, Fab on captured biotin-peptide
Method: as §1

Point of comparison: B2, EC50 39.7 nM. Against it:
- B1 — 4.1-fold higher, 162 nM
- B3 — within 1.5-fold, 30 nM
- B4 — 4.2-fold lower, 9.5 nM
- B5 — 5.8-fold higher, 229 nM

Target: T3, Peptide-37
Assay: ELISA, Fab on captured biotin-peptide
Method: as §1

Point of comparison: B5, EC50 149 nM. Against it:
- B1 — 4.7-fold lower, 31.7 nM
- B2 — 5.5-fold lower, 27.3 nM
- B3 — 7.6-fold lower, 19.5 nM
- B4 — 16-fold lower, 9.3 nM

Target: T4, Peptide-40
Assay: ELISA, Fab on captured biotin-peptide
Method: as §1

Point of comparison: B2, EC50 45.8 nM. Against it:
- B1 — within 1.5-fold, 39.7 nM
- B3 — 1.7-fold lower, 27 nM
- B4 — 1.5-fold lower, 30.4 nM
- B5 — 6.8-fold higher, 310 nM

Target: T5, Peptide-32
Assay: ELISA, Fab on captured biotin-peptide
Method: as §1

Point of comparison: B2, EC50 27.1 nM. Against it:
- B1 — within 1.5-fold, 34.6 nM
- B3 — within 1.5-fold, 35.1 nM
- B4 — within 1.5-fold, 20.1 nM
- B5 — 3.2-fold higher, 87.7 nM

Target: T6, Peptide-42
Assay: ELISA, Fab on captured biotin-peptide
Method: as §1

Point of comparison: B4, EC50 5.7 nM. Against it:
- B1 — 5-fold higher, 28.5 nM
- B2 — 2.4-fold higher, 13.8 nM
- B3 — within 1.5-fold, 5.5 nM
- B5 — 15-fold higher, 86.4 nM

Target: T7, Peptide-8
Assay: ELISA, Fab on captured biotin-peptide
Method: as §1

Point of comparison: B5, EC50 86.4 nM. Against it:
- B1 — 2.5-fold lower, 35.2 nM
- B2 — 6.7-fold lower, 12.9 nM
- B3 — 11-fold lower, 8 nM
- B4 — 10-fold lower, 8.5 nM

Target: T8, Peptide-38
Assay: ELISA, Fab on captured biotin-peptide
Method: as §1

Point of comparison: B5, EC50 290 nM. Against it:
- B1 — 1.6-fold lower, 178 nM
- B2 — 11-fold lower, 26.1 nM
- B3 — 9.1-fold lower, 31.8 nM
- B4 — 30-fold lower, 9.8 nM

Target: T9, Peptide-36
Assay: ELISA, Fab on captured biotin-peptide
Method: as §1

Point of comparison: B3, EC50 30.2 nM. Against it:
- B1 — within 1.5-fold, 41.4 nM
- B2 — within 1.5-fold, 27 nM
- B4 — within 1.5-fold, 23.8 nM
- B5 — 2-fold higher, 60.1 nM

Target: T10, Peptide-64
Assay: ELISA, Fab on captured biotin-peptide
Method: as §1

Point of comparison: B4, EC50 6.4 nM. Against it:
- B1 — 4.4-fold higher, 28.3 nM
- B2 — 1.7-fold higher, 11 nM
- B3 — 1.7-fold lower, 3.8 nM
- B5 — 9.6-fold higher, 61.7 nM

Target: T11, Peptide-35
Assay: ELISA, Fab on captured biotin-peptide
Method: as §1

Point of comparison: B4, EC50 131 nM. Against it:
- B1 — 2-fold higher, 261 nM
- B2 — 2.5-fold higher, 331 nM
- B3 — 1.6-fold higher, 215 nM

Target: T12, Peptide-25
Assay: ELISA, Fab on captured biotin-peptide
Method: as §1

Point of comparison: B2, EC50 42.3 nM. Against it:
- B1 — 5.1-fold higher, 217 nM
- B3 — within 1.5-fold, 35 nM
- B4 — 3.9-fold lower, 10.9 nM

Target: T13, Peptide-33
Assay: ELISA, Fab on captured biotin-peptide
Method: as §1

Point of comparison: B2, EC50 22.9 nM. Against it:
- B1 — within 1.5-fold, 29.7 nM
- B3 — within 1.5-fold, 24.1 nM
- B4 — 2.4-fold lower, 9.6 nM
- B5 — 6.3-fold higher, 144 nM

Target: T14, Peptide-3
Assay: ELISA, Fab on captured biotin-peptide
Method: as §1

Point of comparison: B2, EC50 30.8 nM. Against it:
- B1 — 5.3-fold higher, 164 nM
- B3 — within 1.5-fold, 23 nM
- B4 — 1.7-fold lower, 18.3 nM
- B5 — 9.6-fold higher, 296 nM

Target: T15, Peptide-62
Assay: ELISA, Fab on captured biotin-peptide
Method: as §1

Point of comparison: B3, EC50 9.2 nM. Against it:
- B1 — 8.8-fold higher, 81.4 nM
- B2 — 1.6-fold higher, 14.3 nM
- B4 — 1.8-fold lower, 5.1 nM
- B5 — 15-fold higher, 136 nM

Target: T16, Peptide-39
Assay: ELISA, Fab on captured biotin-peptide
Method: as §1

Point of comparison: B2, EC50 32.7 nM. Against it:
- B1 — 2.9-fold higher, 95.2 nM
- B3 — 2-fold lower, 16.4 nM
- B4 — within 1.5-fold, 32.1 nM
- B5 — 4.6-fold higher, 151 nM

Target: T1, Peptide-43
Assay: ELISA, Fab on captured biotin-peptide
Remark: another data set of the same source
Method: as §1

Point of comparison: B4, EC50 5.3 nM. Against it:
- B1 — 5.4-fold higher, 28.6 nM
- B5 — 8.2-fold higher, 43.6 nM

Target: T17, Peptide-51
Assay: ELISA, Fab on captured biotin-peptide
Method: as §1

Point of comparison: B1, EC50 45.1 nM. Against it:
- B4 — 3.3-fold lower, 13.5 nM
- B5 — 5.4-fold higher, 244 nM

Target: T18, Peptide-56
Assay: ELISA, Fab on captured biotin-peptide
Method: as §1

Point of comparison: B4, EC50 33.3 nM. Against it:
- B1 — 1.6-fold higher, 52.8 nM
- B5 — 3.8-fold higher, 127 nM

Target: T19, Peptide-49
Assay: ELISA, Fab on captured biotin-peptide
Method: as §1

Point of comparison: B5, EC50 130 nM. Against it:
- B1 — 2.3-fold higher, 296 nM
- B4 — 7.1-fold lower, 18.3 nM

Target: T20, Peptide-47
Assay: ELISA, Fab on captured biotin-peptide
Method: as §1

Point of comparison: B4, EC50 79.9 nM. Against it:
- B1 — within 1.5-fold, 113 nM
- B5 — 3.8-fold higher, 304 nM

Target: T21, Peptide-55
Assay: ELISA, Fab on captured biotin-peptide
Method: as §1

Point of comparison: B4, EC50 6.1 nM. Against it:
- B1 — 2.6-fold higher, 15.7 nM
- B5 — 6-fold higher, 36.8 nM

Target: T22, Peptide-54
Assay: ELISA, Fab on captured biotin-peptide
Method: as §1

Point of comparison: B1, EC50 63.5 nM. Against it:
- B4 — 2.1-fold lower, 30 nM
- B5 — 2.3-fold higher, 147 nM

Target: T23, Peptide-53
Assay: ELISA, Fab on captured biotin-peptide
Method: as §1

Point of comparison: B1, EC50 45.3 nM. Against it:
- B4 — 10-fold lower, 4.4 nM
- B5 — within 1.5-fold, 32.5 nM

Target: T24, Peptide-59
Assay: ELISA, Fab on captured biotin-peptide
Method: as §1

Point of comparison: B4, EC50 5.4 nM. Against it:
- B1 — 11-fold higher, 61.1 nM
- B5 — 17-fold higher, 92.8 nM

Target: T25, Peptide-61
Assay: ELISA, Fab on captured biotin-peptide
Method: as §1

Point of comparison: B4, EC50 11.8 nM. Against it:
- B1 — 16-fold higher, 191 nM
- B5 — 23-fold higher, 272 nM

Target: T7, Peptide-8
Assay: ELISA, Fab on captured biotin-peptide
Remark: another data set of the same source
Method: as §1

Point of comparison: B1, EC50 55.6 nM. Against it:
- B4 — 4.6-fold lower, 12.2 nM
- B5 — 5.7-fold higher, 319 nM

Target: T26, Peptide-48
Assay: ELISA, Fab on captured biotin-peptide
Method: as §1

Point of comparison: B5, EC50 42.4 nM. Against it:
- B1 — 2-fold lower, 21.5 nM
- B4 — 3.5-fold lower, 12.2 nM

Target: T27, Peptide-50
Assay: ELISA, Fab on captured biotin-peptide
Method: as §1

Point of comparison: B5, EC50 35.5 nM. Against it:
- B1 — 2.7-fold higher, 96.2 nM
- B4 — 1.6-fold lower, 21.9 nM

Target: T14, Peptide-3
Assay: ELISA, Fab on captured biotin-peptide
Remark: another data set of the same source
Method: as §1

Point of comparison: B5, EC50 296 nM. Against it:
- B1 — 3.2-fold lower, 91.5 nM
- B4 — 24-fold lower, 12.5 nM

Target: T28, Peptide-45
Assay: ELISA, Fab on captured biotin-peptide
Method: as §1

Point of comparison: B1, EC50 50.8 nM. Against it:
- B4 — 1.6-fold lower, 32.6 nM
- B5 — 2.7-fold higher, 138 nM

Target: T29, Peptide-60
Assay: ELISA, Fab on captured biotin-peptide
Method: as §1

Point of comparison: B1, EC50 47.8 nM. Against it:
- B4 — 6.2-fold lower, 7.7 nM
- B5 — within 1.5-fold, 60.4 nM

Target: T30, Peptide-57
Assay: ELISA, Fab on captured biotin-peptide
Method: as §1

Point of comparison: B5, EC50 85.6 nM. Against it:
- B1 — 3.3-fold lower, 25.7 nM
- B4 — 9.3-fold lower, 9.2 nM
